Test results from US20210388087A1 (Chugai, published 2021).
Positions count from the first letter of the chain named. Names and notes keep the numbering of the source.

B1: H183/L072 VH T100bL (antibody, name in Kabat numbering, V domains shown)
VH: QVQLVESGGGLVQPGRSLRLSCAASGFTFSNAWMHWVRQAPGKGLEWVAQIKDKGNAYAAYYAPSVKGRFTISRDDSKNSIYLQMNSLKTEDTAVYYCHYVHYASASLVLPAFGVDAWGQGTTVTVSS
VL: DIVMTQSPLSLPVTPGEPASISCQASQELVHMNRNTYLHWYQQKPGQAPRLLIYKVSNRFPGVPDRFSGSGSGTDFTLKISRVEAEDVGVYYCAQGTSVPFTFGQGTKLEIK
B2: H183/L072 VH V63I (antibody, name in Kabat numbering, V domains shown)
VH: B1 VH with V66I, L108T
VL: B1 VL
B3: H183/L072 VH Y55H (antibody, name in Kabat numbering, V domains shown)
VH: B1 VH with Y58H, L108T
VL: B1 VL
B4: H183/L072 VH Y55K (antibody, name in Kabat numbering, V domains shown)
VH: B1 VH with Y58K, L108T
VL: B1 VL
B5: H183/L072 VH Y55M (antibody, name in Kabat numbering, V domains shown)
VH: B1 VH with Y58M, L108T
VL: B1 VL
B6: H183/L072 VH V100iL (antibody, name in Kabat numbering, V domains shown)
VH: B1 VH with L108T, V115L
VL: B1 VL
B7: H183/L072 VH Y55D (antibody, name in Kabat numbering, V domains shown)
VH: B1 VH with Y58D, L108T
VL: B1 VL
B8: H183/L072 VH V95M (antibody, name in Kabat numbering, V domains shown)
VH: B1 VH with V101M, L108T
VL: B1 VL
B9: H183/L072 VH V95A (antibody, name in Kabat numbering, V domains shown)
VH: B1 VH with V101A, L108T
VL: B1 VL
B10: H183/L072 VH V100iM (antibody, name in Kabat numbering, V domains shown)
VH: B1 VH with L108T, V115M
VL: B1 VL
B11: H183/L072 VH V100cI (antibody, name in Kabat numbering, V domains shown)
VH: B1 VH with L108T, V109I
VL: B1 VL
B12: H183/L072 VH V63M (antibody, name in Kabat numbering, V domains shown)
VH: B1 VH with V66M, L108T
VL: B1 VL
B13: H183/L072 VH T100bM (antibody, name in Kabat numbering, V domains shown)
VH: B1 VH with L108M
VL: B1 VL
B14: H183/L072 VH V63L (antibody, name in Kabat numbering, V domains shown)
VH: B1 VH with V66L, L108T
VL: B1 VL
B15: H183/L072 VH Y55Q (antibody, name in Kabat numbering, V domains shown)
VH: B1 VH with Y58Q, L108T
VL: B1 VL
B16: H183/L072 VH Y55N (antibody, name in Kabat numbering, V domains shown)
VH: B1 VH with Y58N, L108T
VL: B1 VL
B17: H183/L072 VH V63P (antibody, name in Kabat numbering, V domains shown)
VH: B1 VH with V66P, L108T
VL: B1 VL
B18: H183/L072 VH Y55G (antibody, name in Kabat numbering, V domains shown)
VH: B1 VH with Y58G, L108T
VL: B1 VL
B19: H183/L072 VH V100iA (antibody, name in Kabat numbering, V domains shown)
VH: B1 VH with L108T, V115A
VL: B1 VL
B20: H183/L072 VH W33Y (antibody, name in Kabat numbering, V domains shown)
VH: B1 VH with W33Y, L108T
VL: B1 VL
B21: H183/L072 VH V100cM (antibody, name in Kabat numbering, V domains shown)
VH: B1 VH with L108T, V109M
VL: B1 VL
B22: H183/L072 VH V100iI (antibody, name in Kabat numbering, V domains shown)
VH: B1 VH with L108T, V115I
VL: B1 VL
B23: H183/L072 VH V95P (antibody, name in Kabat numbering, V domains shown)
VH: B1 VH with V101P, L108T
VL: B1 VL
B24: H183/L072 VH Y55E (antibody, name in Kabat numbering, V domains shown)
VH: B1 VH with Y58E, L108T
VL: B1 VL
B25: H183/L072 VH Y55L (antibody, name in Kabat numbering, V domains shown)
VH: B1 VH with Y58L, L108T
VL: B1 VL
B26: H183/L072 VH V95L (antibody, name in Kabat numbering, V domains shown)
VH: B1 VH with V101L, L108T
VL: B1 VL
B27: H183/L072 VH V95I (antibody, name in Kabat numbering, V domains shown)
VH: B1 VH with V101I, L108T
VL: B1 VL
B28: H183/L072 VH W33L (antibody, name in Kabat numbering, V domains shown)
VH: B1 VH with W33L, L108T
VL: B1 VL
B29: H183/L072 VH Y55A (antibody, name in Kabat numbering, V domains shown)
VH: B1 VH with Y58A, L108T
VL: B1 VL
B30: H183/L072 VH V100cL (antibody, name in Kabat numbering, V domains shown)
VH: B1 VH with L108T, V109L
VL: B1 VL
B31: H183/L072 VH V100cA (antibody, name in Kabat numbering, V domains shown)
VH: B1 VH with L108T, V109A
VL: B1 VL
B32: H183/L072 VH V63A (antibody, name in Kabat numbering, V domains shown)
VH: B1 VH with V66A, L108T
VL: B1 VL
B33: H183/L072 VH Y55F (antibody, name in Kabat numbering, V domains shown)
VH: B1 VH with Y58F, L108T
VL: B1 VL

These binders were tested against T1, Human CD137 ECD (human) (assay: single mutant vs template dBBDu183H).
T1 construct: also called 4-1BB
T1 sequence (chain, as listed by the source limits assumed): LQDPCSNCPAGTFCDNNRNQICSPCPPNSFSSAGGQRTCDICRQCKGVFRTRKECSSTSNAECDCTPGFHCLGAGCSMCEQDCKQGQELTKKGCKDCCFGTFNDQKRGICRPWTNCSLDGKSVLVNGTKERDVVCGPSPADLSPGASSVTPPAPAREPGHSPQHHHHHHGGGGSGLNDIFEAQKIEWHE
For B1, the “fold change of affinity” value was 0.1 fold.
For B2, the “fold change of affinity” value was 1.1 fold.
With B3 the “fold change of affinity” value was 0.4 fold.
For B4, the “fold change of affinity” value was 0.2 fold.
For B5, the “fold change of affinity” value was 0.4 fold.
In the case of B6, the “fold change of affinity” value is reported as 0.1 fold.
For B7, the “fold change of affinity” value was 0.4 fold.
In the case of B8, the “fold change of affinity” value is reported as 0 fold.
B9 was tested, and the “fold change of affinity” value was 0 fold.
In the case of B10, the “fold change of affinity” value is reported as 0 fold.
In the case of B11, the “fold change of affinity” value is reported as 2.5 fold.
For B12, the “fold change of affinity” value was 0.8 fold.
For B13, the “fold change of affinity” value was 0.5 fold.
With B14 the “fold change of affinity” value was 0.9 fold.
B15 was tested, and the “fold change of affinity” value was 0.2 fold.
In the case of B16, the “fold change of affinity” value is reported as 0.7 fold.
With B17 the “fold change of affinity” value was 1 fold.
In the case of B18, the “fold change of affinity” value is reported as 0.3 fold.
In the case of B19, the “fold change of affinity” value is reported as 0 fold.
In the case of B20, the “fold change of affinity” value is reported as 0 fold.
With B21 the “fold change of affinity” value was 1.3 fold.
With B22 the “fold change of affinity” value was 1.1 fold.
For B23, the “fold change of affinity” value was 0 fold.
In the case of B24, the “fold change of affinity” value is reported as 0.4 fold.
In the case of B25, the “fold change of affinity” value is reported as 0.3 fold.
For B26, the “fold change of affinity” value was 0.2 fold.
For B27, the “fold change of affinity” value was 0.3 fold.
B28 was tested, and the “fold change of affinity” value was 0 fold.
B29 was tested, and the “fold change of affinity” value was 0.3 fold.
In the case of B30, the “fold change of affinity” value is reported as 3.3 fold.
B31 was tested, and the “fold change of affinity” value was 0.4 fold.
In the case of B32, the “fold change of affinity” value is reported as 0.9 fold.
B33 was tested, and the “fold change of affinity” value was 0.5 fold.
